Among the data in patent publication US20210070885A1 (published 2021) are EC50 values, retold here.

To fix the notation:
B1: Tmab-CLC5 (antibody, V domains shown)
VH: not shown
VL: DIQMTQSPSSLSASVGDRVTITCKASQDVSIGVAWYQQKPGKAPKLLIYSASYRYTGVPSRFSGSGSGTDFTLTISSLQPEDFATYYCQQYYIYPYTFGQGTKVEIKR
B2: Tmab-CLC6 (antibody, V domains shown)
VH: not shown
VL: B1 VL with Y94T
B3: Pmab-CLC2 (antibody, V domains shown)
VH: EVQLVESGGGLVQPGGSLRLSCAASGFTFTDYTMDWVRQAPGKGLEWVADVNPNSGGSIYNQRFKGRFTLSVDRSKNTLYLQMNSLRAEDTAVYYCARNLGPSFYFDYWGQGTLVTVSS
VL: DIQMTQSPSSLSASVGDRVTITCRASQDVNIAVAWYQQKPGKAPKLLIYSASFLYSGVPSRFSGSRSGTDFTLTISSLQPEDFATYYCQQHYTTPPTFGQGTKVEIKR
B4: Pmab-CLC3 (antibody, V domains shown)
VH: B3 VH
VL: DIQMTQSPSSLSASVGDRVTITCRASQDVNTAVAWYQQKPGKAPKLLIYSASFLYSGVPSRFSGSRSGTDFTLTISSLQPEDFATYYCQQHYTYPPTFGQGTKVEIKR
B5: Pmab-CLC6 (antibody, V domains shown)
VH: B3 VH
VL: B1 VL with Y94T
B6: Pmab-CLC4 (antibody, V domains shown)
VH: B3 VH
VL: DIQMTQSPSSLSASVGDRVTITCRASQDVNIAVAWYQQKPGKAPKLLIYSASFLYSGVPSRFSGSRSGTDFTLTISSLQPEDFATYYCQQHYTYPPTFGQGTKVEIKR

Changes are numbered by the printed parent chain.

The EC50 is the concentration at which the effect is half-maximal. Higher therefore signals lower potency in that assay.

The first assay addresses HER2m1-Fc (UniProt P04626 23-652). As to the kind of experiment: ELISA.
For B1, it took 0.616 µg/mL to reach a half-maximal effect (EC50).

As to B2, a half-maximal effect (EC50) was put at 1.1 µg/mL.

For the next assay, the target named is HER2m2-Fc (UniProt P04626 23-652). As to the kind of experiment: ELISA.
In turn, B3 yielded an EC50 of 0.598 µg/mL.

Turning to B4, the EC50 was determined as 0.49 µg/mL.

B5 displayed an EC50 of 0.393 µg/mL.

B6 returned an EC50 of 0.479 µg/mL.
